From publication PMC9482650, “Quantitative fragmentomics allow affinity mapping of interactomes” (Nature Communications, 2022)

The binders below were run against T1, APBA2_1, Q99767 (assay: holdup assay). Settings: plain residues with an end cap or a label only (N-terminal biotin on a linker: ado-ado).
T1 sequence (Q99767 563-664, limits assumed, looked up): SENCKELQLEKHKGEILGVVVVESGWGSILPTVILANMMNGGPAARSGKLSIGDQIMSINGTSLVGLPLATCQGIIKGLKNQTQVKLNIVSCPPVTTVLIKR
Design: key: below the threshold = too weak to quantify, mostly under pKd 3.1 to 4
In the case of QFTLRHWLKV [SLC6A3, Q01959], the pKd is reported as 3.48. For RELVMRVTTV [MARCHF4, Q9P2E8], the pKd was “below the threshold”.

These binders were tested against NOS1, P29475 (assay: holdup assay). Settings: plain residues with an end cap or a label only (N-terminal biotin on a linker: ado-ado).
NOS1, P29475, sequence (P29475 9-101): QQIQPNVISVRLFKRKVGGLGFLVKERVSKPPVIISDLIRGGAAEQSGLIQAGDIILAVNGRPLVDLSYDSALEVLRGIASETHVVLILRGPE
Design: key: below the threshold = too weak to quantify, mostly under pKd 3.1 to 4
QFTLRHWLKV [SLC6A3, Q01959] was tested, and the pKd was “below the threshold”. For RELVMRVTTV [MARCHF4, Q9P2E8], the pKd was 3.71.

These binders were tested against GRIP2_6, Q9C0E4 (assay: holdup assay). Settings: plain residues with an end cap or a label only (N-terminal biotin on a linker: ado-ado).
GRIP2_6, Q9C0E4, sequence (Q9C0E4 648-740): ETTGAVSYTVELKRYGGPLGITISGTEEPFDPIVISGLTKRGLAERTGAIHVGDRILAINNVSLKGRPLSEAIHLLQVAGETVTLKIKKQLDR
Design: key: below the threshold = too weak to quantify, mostly under pKd 3.1 to 4
With QFTLRHWLKV [SLC6A3, Q01959] the pKd was 3.9. For RELVMRVTTV [MARCHF4, Q9P2E8], the pKd was “below the threshold”.

The binders below were run against NHERF4_2, Q86UT5 (assay: holdup assay). Settings: plain residues with an end cap or a label only (N-terminal biotin on a linker: ado-ado).
NHERF4_2, Q86UT5, sequence (Q86UT5 220-308): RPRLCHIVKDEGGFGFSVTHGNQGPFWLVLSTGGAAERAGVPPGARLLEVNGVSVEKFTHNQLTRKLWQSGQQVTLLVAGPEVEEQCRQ
Design: key: below the threshold = too weak to quantify, mostly under pKd 3.1 to 4
With QFTLRHWLKV [SLC6A3, Q01959] the pKd was “below the threshold”. For RELVMRVTTV [MARCHF4, Q9P2E8], the pKd was “below the threshold”.

Each binder was assayed against T2, TJP3_3, O95049 (assay: holdup assay). Settings: plain residues with an end cap or a label only (N-terminal biotin on a linker: ado-ado).
T2 sequence (O95049 375-456, limits assumed, looked up): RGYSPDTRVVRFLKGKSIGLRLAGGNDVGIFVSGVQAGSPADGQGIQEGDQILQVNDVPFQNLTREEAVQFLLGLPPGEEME
Design: key: below the threshold = too weak to quantify, mostly under pKd 3.1 to 4
With QFTLRHWLKV [SLC6A3, Q01959] the pKd was “below the threshold”. With RELVMRVTTV [MARCHF4, Q9P2E8] the pKd was “below the threshold”.

Each binder was assayed against Inadl_6, Q8NI35 (assay: holdup assay). Settings: plain residues with an end cap or a label only (N-terminal biotin on a linker: ado-ado).
Inadl_6, Q8NI35, sequence (Q8NI35 1058-1167): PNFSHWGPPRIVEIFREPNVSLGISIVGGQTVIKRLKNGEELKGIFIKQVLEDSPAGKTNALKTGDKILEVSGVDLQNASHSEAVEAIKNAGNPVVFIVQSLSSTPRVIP
Design: key: below the threshold = too weak to quantify, mostly under pKd 3.1 to 4
In the case of QFTLRHWLKV [SLC6A3, Q01959], the pKd is reported as “below the threshold”. Binder RELVMRVTTV [MARCHF4, Q9P2E8] has a pKd of 3.95.

What follows are binders tested against T3, DVL3, Q92997 (assay: holdup assay). Settings: plain residues with an end cap or a label only (N-terminal biotin on a linker: ado-ado).
T3 sequence (Q92997 244-331, limits assumed, looked up): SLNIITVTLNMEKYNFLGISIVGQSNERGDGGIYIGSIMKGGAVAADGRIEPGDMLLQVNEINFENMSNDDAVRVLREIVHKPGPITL
Design: key: below the threshold = too weak to quantify, mostly under pKd 3.1 to 4
In the case of QFTLRHWLKV [SLC6A3, Q01959], the pKd is reported as “below the threshold”. With RELVMRVTTV [MARCHF4, Q9P2E8] the pKd was “below the threshold”.

The binders below were run against T4, SNTA1, Q13424 (assay: holdup assay). Settings: plain residues with an end cap or a label only (N-terminal biotin on a linker: ado-ado).
T4 sequence (Q13424 82-180, limits assumed, looked up): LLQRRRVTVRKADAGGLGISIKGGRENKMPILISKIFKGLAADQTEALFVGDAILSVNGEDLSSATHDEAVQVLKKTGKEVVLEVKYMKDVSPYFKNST
Design: key: below the threshold = too weak to quantify, mostly under pKd 3.1 to 4
For QFTLRHWLKV [SLC6A3, Q01959], the pKd was “below the threshold”. For RELVMRVTTV [MARCHF4, Q9P2E8], the pKd was 5.1.

These binders were tested against T5, PCLO, Q9Y6V0 (assay: holdup assay). Settings: plain residues with an end cap or a label only (N-terminal biotin on a linker: ado-ado).
T5 sequence (Q9Y6V0 4491-4600, limits assumed, looked up): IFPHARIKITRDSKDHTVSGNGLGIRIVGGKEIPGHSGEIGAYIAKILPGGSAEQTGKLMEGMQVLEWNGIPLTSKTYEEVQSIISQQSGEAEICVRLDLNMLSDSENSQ
Design: key: below the threshold = too weak to quantify, mostly under pKd 3.1 to 4
With QFTLRHWLKV [SLC6A3, Q01959] the pKd was “below the threshold”. For RELVMRVTTV [MARCHF4, Q9P2E8], the pKd was “below the threshold”.

The binders below were run against T6, CARD11, Q9BXL7 (assay: holdup assay). Settings: plain residues with an end cap or a label only (N-terminal biotin on a linker: ado-ado).
T6 sequence (Q9BXL7 662-765, limits assumed, looked up): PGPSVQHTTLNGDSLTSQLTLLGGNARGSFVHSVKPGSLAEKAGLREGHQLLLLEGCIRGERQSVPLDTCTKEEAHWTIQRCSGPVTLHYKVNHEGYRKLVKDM
Design: key: below the threshold = too weak to quantify, mostly under pKd 3.1 to 4
For QFTLRHWLKV [SLC6A3, Q01959], the pKd was “below the threshold”. In the case of RELVMRVTTV [MARCHF4, Q9P2E8], the pKd is reported as “below the threshold”.

The binders below were run against T7, MPP6, Q9NZW5 (assay: holdup assay). Settings: plain residues with an end cap or a label only (N-terminal biotin on a linker: ado-ado).
T7 sequence (Q9NZW5 125-219, limits assumed, looked up): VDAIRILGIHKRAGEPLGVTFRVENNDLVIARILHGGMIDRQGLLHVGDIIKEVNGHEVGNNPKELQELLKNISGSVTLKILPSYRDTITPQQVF
Design: key: below the threshold = too weak to quantify, mostly under pKd 3.1 to 4
With QFTLRHWLKV [SLC6A3, Q01959] the pKd was “below the threshold”. Binder RELVMRVTTV [MARCHF4, Q9P2E8] has a pKd of 3.59.

The binders below were run against T8, TIAM2, Q8IVF5 (assay: holdup assay). Settings: plain residues with an end cap or a label only (N-terminal biotin on a linker: ado-ado).
T8 sequence (Q8IVF5 885-986, limits assumed, looked up): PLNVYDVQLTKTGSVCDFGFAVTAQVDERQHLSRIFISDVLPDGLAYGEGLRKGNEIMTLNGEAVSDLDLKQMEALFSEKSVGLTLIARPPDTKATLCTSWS
Design: key: below the threshold = too weak to quantify, mostly under pKd 3.1 to 4
For QFTLRHWLKV [SLC6A3, Q01959], the pKd was 4.46. In the case of RELVMRVTTV [MARCHF4, Q9P2E8], the pKd is reported as 3.76.

These binders were tested against MAGI2_6, Q86UL8 (assay: holdup assay). Settings: plain residues with an end cap or a label only (N-terminal biotin on a linker: ado-ado).
MAGI2_6, Q86UL8, sequence (Q86UL8 1141-1229): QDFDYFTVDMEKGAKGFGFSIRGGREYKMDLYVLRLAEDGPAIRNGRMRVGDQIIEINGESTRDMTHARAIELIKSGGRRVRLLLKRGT
Design: key: below the threshold = too weak to quantify, mostly under pKd 3.1 to 4
For QFTLRHWLKV [SLC6A3, Q01959], the pKd was “below the threshold”. RELVMRVTTV [MARCHF4, Q9P2E8] showed a pKd of 4.55.

These binders were tested against IL16_1, Q14005 (assay: holdup assay). Settings: plain residues with an end cap or a label only (N-terminal biotin on a linker: ado-ado).
IL16_1, Q14005, sequence (Q14005 210-306): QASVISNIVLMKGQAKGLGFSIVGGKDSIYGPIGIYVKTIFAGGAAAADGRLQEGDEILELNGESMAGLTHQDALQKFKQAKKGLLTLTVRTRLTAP
Design: key: below the threshold = too weak to quantify, mostly under pKd 3.1 to 4
With QFTLRHWLKV [SLC6A3, Q01959] the pKd was “below the threshold”. Binder RELVMRVTTV [MARCHF4, Q9P2E8] has a pKd of 4.33.

What follows are binders tested against GRIP2_3, Q9C0E4 (assay: holdup assay). Settings: plain residues with an end cap or a label only (N-terminal biotin on a linker: ado-ado).
GRIP2_3, Q9C0E4, sequence (Q9C0E4 238-339): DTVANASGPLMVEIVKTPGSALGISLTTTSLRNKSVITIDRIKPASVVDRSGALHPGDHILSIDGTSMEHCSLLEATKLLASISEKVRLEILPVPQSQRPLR
Design: key: below the threshold = too weak to quantify, mostly under pKd 3.1 to 4
With QFTLRHWLKV [SLC6A3, Q01959] the pKd was “below the threshold”. With RELVMRVTTV [MARCHF4, Q9P2E8] the pKd was “below the threshold”.

The binders below were run against T9, ARHGEF11, O15085 (assay: holdup assay). Settings: plain residues with an end cap or a label only (N-terminal biotin on a linker: ado-ado).
T9 sequence (O15085 42-136, limits assumed, looked up): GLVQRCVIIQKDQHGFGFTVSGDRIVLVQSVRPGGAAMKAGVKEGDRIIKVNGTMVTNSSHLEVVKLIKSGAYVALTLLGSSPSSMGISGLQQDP
Design: key: below the threshold = too weak to quantify, mostly under pKd 3.1 to 4
For QFTLRHWLKV [SLC6A3, Q01959], the pKd was “below the threshold”. With RELVMRVTTV [MARCHF4, Q9P2E8] the pKd was 4.71.

Each binder was assayed against T10, NHERF3_1, Q5T2W1 (assay: holdup assay). Settings: plain residues with an end cap or a label only (N-terminal biotin on a linker: ado-ado).
T10 sequence (Q5T2W1 4-100, limits assumed, looked up): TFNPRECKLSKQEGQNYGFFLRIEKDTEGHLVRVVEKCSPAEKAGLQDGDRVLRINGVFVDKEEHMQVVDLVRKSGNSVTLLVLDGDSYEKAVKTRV
Design: key: below the threshold = too weak to quantify, mostly under pKd 3.1 to 4
With QFTLRHWLKV [SLC6A3, Q01959] the pKd was 3.77. For RELVMRVTTV [MARCHF4, Q9P2E8], the pKd was “below the threshold”.

The binders below were run against HTRA2, O43464 (assay: holdup assay). Settings: plain residues with an end cap or a label only (N-terminal biotin on a linker: ado-ado).
HTRA2, O43464, sequence (O43464 355-458): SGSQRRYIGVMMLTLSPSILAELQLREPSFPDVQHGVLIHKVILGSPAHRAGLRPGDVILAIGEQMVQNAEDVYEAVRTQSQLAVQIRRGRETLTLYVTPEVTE
Design: key: below the threshold = too weak to quantify, mostly under pKd 3.1 to 4
QFTLRHWLKV [SLC6A3, Q01959] gave a pKd of 4.06. RELVMRVTTV [MARCHF4, Q9P2E8] showed a pKd of 3.83.

Each binder was assayed against T11, FRMPD1, Q5SYB0 (assay: holdup assay). Settings: plain residues with an end cap or a label only (N-terminal biotin on a linker: ado-ado).
T11 sequence (Q5SYB0 52-145, limits assumed, looked up): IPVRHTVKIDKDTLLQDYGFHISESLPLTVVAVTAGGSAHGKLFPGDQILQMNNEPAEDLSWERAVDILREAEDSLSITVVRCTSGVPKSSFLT
Design: key: below the threshold = too weak to quantify, mostly under pKd 3.1 to 4
QFTLRHWLKV [SLC6A3, Q01959] was tested, and the pKd was 3.57. RELVMRVTTV [MARCHF4, Q9P2E8] was tested, and the pKd was “below the threshold”.

These binders were tested against DLG5_1, Q8TDM6 (assay: holdup assay). Settings: plain residues with an end cap or a label only (N-terminal biotin on a linker: ado-ado).
DLG5_1, Q8TDM6, sequence (Q8TDM6 617-713): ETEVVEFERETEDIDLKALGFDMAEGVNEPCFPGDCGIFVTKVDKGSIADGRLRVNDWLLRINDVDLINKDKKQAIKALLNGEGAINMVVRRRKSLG
Design: key: below the threshold = too weak to quantify, mostly under pKd 3.1 to 4
With QFTLRHWLKV [SLC6A3, Q01959] the pKd was “below the threshold”. For RELVMRVTTV [MARCHF4, Q9P2E8], the pKd was “below the threshold”.

Each binder was assayed against T12, GRIP1_2, Q9Y3R0 (assay: holdup assay). Settings: plain residues with an end cap or a label only (N-terminal biotin on a linker: ado-ado).
T12 sequence (Q9Y3R0 145-248, limits assumed, looked up): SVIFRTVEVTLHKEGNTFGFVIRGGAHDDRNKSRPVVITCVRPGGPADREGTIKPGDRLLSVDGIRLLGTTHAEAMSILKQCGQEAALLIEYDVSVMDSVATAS
Design: key: below the threshold = too weak to quantify, mostly under pKd 3.1 to 4
With QFTLRHWLKV [SLC6A3, Q01959] the pKd was “below the threshold”. With RELVMRVTTV [MARCHF4, Q9P2E8] the pKd was “below the threshold”.

The binders below were run against PICK1, Q9NRD5 (assay: holdup assay). Settings: plain residues with an end cap or a label only (N-terminal biotin on a linker: ado-ado).
PICK1, Q9NRD5, sequence (Q9NRD5 17-115): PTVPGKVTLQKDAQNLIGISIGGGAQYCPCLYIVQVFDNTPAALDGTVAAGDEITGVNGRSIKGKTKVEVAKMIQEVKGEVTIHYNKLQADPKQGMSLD
Design: key: below the threshold = too weak to quantify, mostly under pKd 3.1 to 4
Work on QFTLRHWLKV [SLC6A3, Q01959] yielded a pKd of 3.69. In the case of RELVMRVTTV [MARCHF4, Q9P2E8], the pKd is reported as “below the threshold”.

These binders were tested against T13, APBA3_1, O96018 (assay: holdup assay). Settings: plain residues with an end cap or a label only (N-terminal biotin on a linker: ado-ado).
T13 sequence (O96018 389-490, limits assumed, looked up): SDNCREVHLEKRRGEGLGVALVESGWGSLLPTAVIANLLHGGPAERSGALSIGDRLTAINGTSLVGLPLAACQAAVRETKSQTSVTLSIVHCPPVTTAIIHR
Design: key: below the threshold = too weak to quantify, mostly under pKd 3.1 to 4
With QFTLRHWLKV [SLC6A3, Q01959] the pKd was “below the threshold”. In the case of RELVMRVTTV [MARCHF4, Q9P2E8], the pKd is reported as “below the threshold”.

These binders were tested against CASK, O14936 (assay: holdup assay). Settings: plain residues with an end cap or a label only (N-terminal biotin on a linker: ado-ado).
CASK, O14936, sequence (O14936 487-570): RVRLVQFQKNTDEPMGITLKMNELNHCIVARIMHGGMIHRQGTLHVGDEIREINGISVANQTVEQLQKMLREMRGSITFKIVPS
Design: key: below the threshold = too weak to quantify, mostly under pKd 3.1 to 4
In the case of QFTLRHWLKV [SLC6A3, Q01959], the pKd is reported as “below the threshold”. With RELVMRVTTV [MARCHF4, Q9P2E8] the pKd was “below the threshold”.

The binders below were run against ARHGEF12, Q9NZN5-2 (assay: holdup assay). Settings: plain residues with an end cap or a label only (N-terminal biotin on a linker: ado-ado).
ARHGEF12, Q9NZN5-2, sequence (Q9NZN5 other isoform, or with tags, fused parts or gaps): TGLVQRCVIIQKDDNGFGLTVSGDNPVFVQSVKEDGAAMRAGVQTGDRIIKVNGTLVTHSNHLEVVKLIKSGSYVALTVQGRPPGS
Design: key: below the threshold = too weak to quantify, mostly under pKd 3.1 to 4
With QFTLRHWLKV [SLC6A3, Q01959] the pKd was “below the threshold”. In the case of RELVMRVTTV [MARCHF4, Q9P2E8], the pKd is reported as 4.86.
